What was measured:
HLA-A2 molecule = target: T1, HLA-A2 molecule (Homo sapiens, UniProt P04439, D140Y/D185E/D98H/E176V/E277Q/G131W/G231S/I119V/I121R/I166T/I218V/L300P/L318F/N151K/N90K/P208A/P217A/Q86G/Q94H/R138H/R169H/T345S); assay: T2 binding assay (HLA-A2 up-regulation on TAP-deficient T2 cells); settings: for FI0.5: peptide concentration that increases HLA-A2.1 expression by 50% over no peptide
T1 construct: The T2 cell line is deficient for TAP1 and TAP2 transporter proteins and expresses low levels of HLA-A2; endogenous in cells; host or cells: T2 cell line (TAP1/TAP2-deficient)
Experimental: FIG. 1 is a graph showing binding affinity of POTE peptides to HLA-A2 molecules. Peptides were dissolved in DMSO in double-distilled water and different concentrations of peptides were added into the culture of TAP-deficient T2 cells. After overnight culture of the cells in medium supplemented with β2-microglobulin, cells were stained with anti-HLA-A2. HLA-A2 expression was quantified as fluorescence index (FI) according to the following formula: FI=[(mean fluorescence intensity with peptide−mean fluorescence intensity without peptide)/mean fluorescence intensity without peptide]. Background fluorescence without BB7.2 was subtracted for each individual value. To compare the different peptides, FI0.5 (the peptide concentration that increases HLA-A2.1 expression by 50% over no peptide control background) was calculated from the titration curve for each peptide.
FIGS. 2A-2C are graphs showing binding affinity of substituted POTE peptides to HLA-A2 molecules. Shown are binding affinities of the substituted POTE 252 peptides (FIG. 2A), the substituted POTE 553 peptides (FIG. 2B) and the substituted POTE 323 peptides (FIG. 2C) to HLA-A2 molecules. Different concentrations of peptides were added into the culture of TAP-deficient T2 cells. After overnight culture of the cells in medium supplemented with β2-microglobulin, cells were stained with anti-HLA-A2 antibody.
Peptide binding capacity to the HLA-A2 molecule was measured by using the T2 cell line according to a protocol described previously (Peters et al., Bioinformatics 19(14):1765-1772, 2003). T2 cells (3×10^5 cells/well) were incubated overnight in 96-well plates with culture medium (1:1 mixture of RPMI 1640/Eagle-Hank's amino acid containing 2.5% fetal bovine serum, 100 U/ml penicillin, and 100 μg/ml streptomycin) with 10 μg/ml β2-microglobulin (Sigma) and different titrated concentrations of peptides (starting from 100 μM with 2-fold serial dilution) as shown in the figures to determine the concentration giving a 50% increasing in binding. Cells were washed once with cold HBSS containing 0.1% BSA and incubated for 30 minutes at 4° C. with anti-HLA-A2.1 BB7.2 monoclonal antibody (1:40 dilution from hybridoma supernatant). After washing, cells were stained with FITC-labeled goat anti-mouse immunoglobulin (BD, San Jose, Calif.), and the level of HLA expression was measured by flow cytometry. HLA-A2 expression was quantified as fluorescence index (FI) according to the following formula: FI=[(geometric mean fluorescence intensity with peptide-geometric mean fluorescence intensity without peptide)/geometric mean fluorescence intensity without peptide]. Background fluorescence without BB7.2 was subtracted for each individual value. To compare the different peptides, FI0.5, the peptide concentration that increases HLA-A2.1 expression by 50% over no peptide control background, was calculated from the titration curve for each peptide.

HLA-A2/POTE252 tetramer = assay: HLA-A2/peptide tetramer stain and TCR Vβ repertoire of CTLs from immunized HHD-2 mice; type: in vivo; settings: after 1-week in vitro stimulation with cognate peptide
Experimental: FIGS. 7A-7C are FACS plots showing HLA-A2/peptide tetramer staining and T cell receptor (TCR) repertoire determination for POTE 252- and POTE 252-9V-induced CTLs. HHD-2 mice were immunized subcutaneously with a mixture of peptide and cytokines in adjuvant. Two weeks after the second boost, pooled spleen cells from three mice were restimulated with irradiated splenocytes pulsed with 1.0 μM of peptide for 1 week. (FIG. 7A) Percentage of the HLA-A2/POTE252 tetramer-positive cells in the POTE 252- and POTE 252-9V-induced CTLs. (FIG. 7B) TCR Vβ repertoires of the tetramer^+CD8^+ T cells in POTE 252-induced CTLs. (FIG. 7C) TCR Vβ repertoires of the tetramer^+CD8^+ T cells in POTE 252-9V-induced CTLs.
AAD or HHD-2 mice were immunized subcutaneously (s.c.) in the base of the tail with 100 μl of an emulsion containing 1:1 incomplete Freund's adjuvant (Sigma) and PBS with peptides and cytokines (50 nmol of CTL epitope, 50 nmol of hepatitis B virus core 128-140 helper epitope, 5 μg of mouse interleukin-12, and 5 μg of mouse granulocyte macrophage colony-stimulating factor). Cytokines were purchased from Peprotech (Rocky Hill, N.J.). Mice were boosted 2 weeks later, and the spleens were removed 2 weeks after the boost. For all experiments, groups of three mice were used. […]

binding affinity for the HLA-A2 molecule (in words) (HLA-A2 molecule; T2 binding assay): intermediate binders
FI0.5 (HLA-A2 molecule; substituted peptides and their wild types, Table 2 / FIGS. 2A-2C): 1.5 µM
FI0.5 (HLA-A2 molecule; wild-type peptides, Table 1 / FIG. 1): ~1.6 µM
Sequence: KLMAKALLL [POTE 252-260, unmodified 9-mer peptide, residues 252-260 of human POTE]
tetramer-positive CD8+ T cells (HLA-A2/POTE252 tetramer): 9.3%
